Source: PMC4011751, “Recombinant Expression and Characterization of the Cytoplasmic Rice β-Glucosidase Os1BGlu4” (PLoS ONE, 2014)
Blank lines part the entries; values can stand above or below the molecule they belong to.

What was measured:
rOs1BGlu4 = molecular target: T1, rOs1BGlu4 (Oryza sativa, UniProt Q5N863); experiment: inhibition of pNPGlc hydrolysis, […] nm; type: biochemical; conditions: read-out: Relative activity remaining (%)
T1 construct: gene BGLU4; full-length ORF (483 aa, no signal peptide, about 55 kDa) in pET32a(+), E. coli Origami B(DE3); Trx-His6 tag removed with enterokinase
T1 sequence (Q5N863 1-483): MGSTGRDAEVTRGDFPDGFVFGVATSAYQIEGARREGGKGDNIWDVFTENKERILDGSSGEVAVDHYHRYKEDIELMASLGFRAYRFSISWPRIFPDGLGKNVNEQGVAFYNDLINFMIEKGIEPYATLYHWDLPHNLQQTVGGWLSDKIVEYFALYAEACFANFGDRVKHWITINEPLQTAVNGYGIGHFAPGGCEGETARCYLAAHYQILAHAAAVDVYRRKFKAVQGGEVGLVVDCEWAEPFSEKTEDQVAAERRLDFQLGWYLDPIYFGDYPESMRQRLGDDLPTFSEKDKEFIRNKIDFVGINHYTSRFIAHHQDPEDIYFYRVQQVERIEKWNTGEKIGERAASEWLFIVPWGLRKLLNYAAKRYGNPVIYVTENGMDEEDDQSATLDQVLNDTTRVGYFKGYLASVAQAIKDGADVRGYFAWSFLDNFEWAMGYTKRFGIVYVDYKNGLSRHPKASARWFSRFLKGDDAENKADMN

purified protein [1] = substrate: O=[N+]([O-])c1ccc(O[C@@H]2OC[C@H](O)[C@H](O)[C@H]2O)cc1; experiment: purified protein; type: biochemical, Oryza sativa; conditions: 50 mM sodium phosphate pH 6.5, 30°C (standard assay)
purified protein [2] = substrate: C[C@H]1O[C@@H](Oc2ccc([N+](=O)[O-])cc2)[C@H](O)[C@@H](O)[C@H]1O; experiment: purified protein; type: biochemical, Oryza sativa; conditions: 50 mM sodium phosphate pH 6.5, 30°C (standard assay)
purified protein [3] = substrate: O=[N+]([O-])c1ccc(O[C@@H]2O[C@H](CO)[C@H](O)[C@H](O)[C@H]2O)cc1; experiment: purified protein; conditions: 50 mM sodium phosphate pH 6.5, 30°C (standard assay)
purified protein [4] = substrate: O=[N+]([O-])c1ccc(O[C@@H]2O[C@H](CO)[C@@H](O)[C@H](O)[C@H]2O)cc1; experiment: purified protein; conditions: 50 mM sodium phosphate pH 6.5, 30°C (standard assay)
purified protein [5] = substrate: O=[N+]([O-])c1ccc(O[C@@H]2O[C@H](CO)[C@@H](O)[C@H](O)[C@@H]2O)cc1; experiment: purified protein; conditions: 50 mM sodium phosphate pH 6.5, 30°C (standard assay)
[6] = substrate: O=[N+]([O-])c1ccc(O[C@@H]2O[C@H](CO)[C@@H](O[C@@H]3O[C@H](CO)[C@@H](O)[C@H](O)[C@H]3O)[C@H](O)[C@H]2O)cc1; experiment: initial-rate hydrolysis, glucose release by peroxidase/glucose oxidase assay, nonlinear Michaelis-Menten fit; type: biochemical, Oryza sativa; conditions: 50 mM sodium phosphate pH 6.5, 30°C (standard assay)

Molecule: N[C@H]1C(O)O[C@H](CO)[C@@H](O)[C@@H]1O (stereo partly drawn) [D-Glucosamine]
remaining activity at 10000 µM (rOs1BGlu4): 84%

Molecule: OC1OC[C@@H](O)[C@H](O)[C@H]1O (stereo partly drawn) [D-Xylose]
remaining activity at 10000 µM (rOs1BGlu4): 85%

Molecule: OC1OC[C@H](O)[C@H](O)[C@H]1O (stereo partly drawn) [L-Arabinose]
remaining activity at 10000 µM (rOs1BGlu4): 61%

B1: rOs1BGlu4 (Oryza sativa Japonica Group) (protein)
chain: T1 sequence (Q5N863 1-483)
notes: full-length ORF (483 aa, no signal peptide, about 55 kDa) in pET32a(+), E. coli Origami B(DE3); Trx-His6 tag removed with enterokinase
Km (purified protein [1]): 380 ± 20 µM | kcat (purified protein [1]): 0.52 s⁻¹ | kcat/Km (purified protein [1]): 1370 M⁻¹ s⁻¹ | Km (purified protein [2]): 710 ± 20 µM | kcat (purified protein [2]): 6.61 ± 0.08 s⁻¹ | kcat/Km (purified protein [2]): 9340 M⁻¹ s⁻¹ | Km (purified protein [3]): 7330 ± 320 µM | kcat (purified protein [3]): 3.16 s⁻¹ | kcat/Km (purified protein [3]): 430 M⁻¹ s⁻¹ | Km (purified protein [4]): 710 ± 20 µM | kcat (purified protein [4]): 12.8 s⁻¹ | kcat/Km (purified protein [4]): 17900 M⁻¹ s⁻¹ | Km (purified protein [5]): 2240 ± 30 µM | kcat (purified protein [5]): 1.25 s⁻¹ | kcat/Km (purified protein [5]): 560 M⁻¹ s⁻¹ | Km [6]: 140 ± 10 µM | kcat [6]: 3.44 ± 0.18 s⁻¹ | kcat/Km [6]: 24400 M⁻¹ s⁻¹

Continued, values first:

remaining activity at 10000 µM (rOs1BGlu4): 90%
Molecule: OC[C@H]1OC(O)[C@H](O)[C@@H](O)[C@@H]1O (stereo partly drawn) [D-Glucose]

remaining activity at 1000 µM (rOs1BGlu4): 14%
Molecule: O=C1O[C@H](CO)[C@@H](O)[C@H](O)[C@H]1O [δ-glucono-lactone]

remaining activity at 10000 µM (rOs1BGlu4): 73%
Molecule: OC[C@H]1OC(O)[C@@H](O)[C@@H](O)[C@@H]1O (stereo partly drawn) [D-Mannose]

remaining activity at 10000 µM (rOs1BGlu4): 93%
Molecule: OC[C@H]1OC(O)[C@H](O)[C@@H](O)[C@H]1O (stereo partly drawn) [D-Galactose]
